Substrate in series [1]: O=C1CCCC/C1=C\c1ccccc1
Put plainly: purified protein. The conditions noted are these: 1.0 mM NADPH, 10 μM enzyme, PBS 100 mM, pH 7.5, 30 °C. The class given is biochemical, Bacillus subtilis.

Substrate in series [2]: O=C1CCC/C1=C\c1ccccc1
Put plainly: purified protein. Format: biochemical, Bacillus subtilis. The conditions noted are these: 1.0 mM NADPH, 10 μM enzyme, PBS 100 mM, pH 7.5, 30 °C.

B1: YqjM (Bacillus subtilis subsp. subtilis str. 168) (protein)
chain: ARKLFTPITIKDMTLKNRIVMSPMCMYSSHEKDGKLTPFHMAHYISRAIGQVGLIIVEASAVNPQGRITDQDLGIWSDEHIEGFAKLTEQVKEQGSKIGIQLAHAGRKAELEGDIFAPSAIAFDEQSATPVEMSAEKVKETVQEFKQAAARAKEAGFDVIEIHAAHGYLIHEFLSPLSNHRTDEYGGSPENRYRFLREIIDEVKQVWDGPLFVRVSASDYTDKGLDIADHIGFAKWMKEQGVDLIDCSSGALVHADINVFPGYQVSFAEKIREQADMATGAVGMITDGSMAEEILQNGRADLIFIGRELLRDPFFARTAAKQLNTEIPAPVQYERGW
notes: ene-reductase, FMN enzyme
In general, Km refers to the substrate concentration at which the rate is half of its maximum. As usually defined, the kcat is the maximal rate divided by the concentration of active sites. A word on the kcat/Km: it is the turnover number divided by the Michaelis constant. As for B1, in the series “purified protein [1]”, the Michaelis-Menten constant (Km) is 7.98 ± 0.18 mM, the kcat amounted to 0.19 ± 0.009 s⁻¹ and the kcat/Km was 20 M⁻¹ s⁻¹. In addition, in the series “purified protein [2]”, the Km is listed as 8.35 ± 0.2 mM, the kcat is 0.23 ± 0.005 s⁻¹ and the kcat/Km stood at 30 M⁻¹ s⁻¹.

B2: YqjM (Bacillus subtilis subsp. subtilis str. 168; C26A/I69Y) (protein)
chain: ARKLFTPITIKDMTLKNRIVMSPMAMYSSHEKDGKLTPFHMAHYISRAIGQVGLIIVEASAVNPQGRYTDQDLGIWSDEHIEGFAKLTEQVKEQGSKIGIQLAHAGRKAELEGDIFAPSAIAFDEQSATPVEMSAEKVKETVQEFKQAAARAKEAGFDVIEIHAAHGYLIHEFLSPLSNHRTDEYGGSPENRYRFLREIIDEVKQVWDGPLFVRVSASDYTDKGLDIADHIGFAKWMKEQGVDLIDCSSGALVHADINVFPGYQVSFAEKIREQADMATGAVGMITDGSMAEEILQNGRADLIFIGRELLRDPFFARTAAKQLNTEIPAPVQYERGW
notes: ene-reductase, FMN enzyme
As to B2, in the series “purified protein [1]”, the Km worked out at 2.98 ± 0.1 mM, the kcat was determined as 1.12 ± 0.02 s⁻¹ and the kcat/Km was found to be 380 M⁻¹ s⁻¹. In “purified protein [2]”, the Km turned out to be 2.65 ± 0.02 mM, the catalytic constant (kcat) was 0.89 ± 0.023 s⁻¹ and the kcat/Km was 340 M⁻¹ s⁻¹.

B3: YqjM (Bacillus subtilis subsp. subtilis str. 168; C26G/I69Y/Y28F) (protein)
chain: ARKLFTPITIKDMTLKNRIVMSPMGMFSSHEKDGKLTPFHMAHYISRAIGQVGLIIVEASAVNPQGRYTDQDLGIWSDEHIEGFAKLTEQVKEQGSKIGIQLAHAGRKAELEGDIFAPSAIAFDEQSATPVEMSAEKVKETVQEFKQAAARAKEAGFDVIEIHAAHGYLIHEFLSPLSNHRTDEYGGSPENRYRFLREIIDEVKQVWDGPLFVRVSASDYTDKGLDIADHIGFAKWMKEQGVDLIDCSSGALVHADINVFPGYQVSFAEKIREQADMATGAVGMITDGSMAEEILQNGRADLIFIGRELLRDPFFARTAAKQLNTEIPAPVQYERGW
notes: ene-reductase, FMN enzyme
For the protein B3, in the series “purified protein [2]”, the Km is recorded as 2.21 ± 0.02 mM, the kcat stood at 0.49 ± 0.012 s⁻¹ and the kcat/Km is 220 M⁻¹ s⁻¹.

B4: YqjM (Bacillus subtilis subsp. subtilis str. 168; C26G/I69Y) (protein)
chain: ARKLFTPITIKDMTLKNRIVMSPMGMYSSHEKDGKLTPFHMAHYISRAIGQVGLIIVEASAVNPQGRYTDQDLGIWSDEHIEGFAKLTEQVKEQGSKIGIQLAHAGRKAELEGDIFAPSAIAFDEQSATPVEMSAEKVKETVQEFKQAAARAKEAGFDVIEIHAAHGYLIHEFLSPLSNHRTDEYGGSPENRYRFLREIIDEVKQVWDGPLFVRVSASDYTDKGLDIADHIGFAKWMKEQGVDLIDCSSGALVHADINVFPGYQVSFAEKIREQADMATGAVGMITDGSMAEEILQNGRADLIFIGRELLRDPFFARTAAKQLNTEIPAPVQYERGW
notes: ene-reductase, FMN enzyme
As to B4, in the series “purified protein [1]”, the Km was determined as 1.1 ± 0.03 mM, the kcat is 1.86 ± 0.05 s⁻¹ and the kcat/Km was 1690 M⁻¹ s⁻¹. In the series “purified protein [2]”, the Km is given as 1.21 ± 0.01 mM, the kcat stood at 1.59 ± 0.03 s⁻¹ and the kcat/Km was determined as 1310 M⁻¹ s⁻¹.

B5: YqjM (Bacillus subtilis subsp. subtilis str. 168; I69Y) (protein)
chain: ARKLFTPITIKDMTLKNRIVMSPMCMYSSHEKDGKLTPFHMAHYISRAIGQVGLIIVEASAVNPQGRYTDQDLGIWSDEHIEGFAKLTEQVKEQGSKIGIQLAHAGRKAELEGDIFAPSAIAFDEQSATPVEMSAEKVKETVQEFKQAAARAKEAGFDVIEIHAAHGYLIHEFLSPLSNHRTDEYGGSPENRYRFLREIIDEVKQVWDGPLFVRVSASDYTDKGLDIADHIGFAKWMKEQGVDLIDCSSGALVHADINVFPGYQVSFAEKIREQADMATGAVGMITDGSMAEEILQNGRADLIFIGRELLRDPFFARTAAKQLNTEIPAPVQYERGW
notes: ene-reductase, FMN enzyme
Regarding B5, in “purified protein [1]”, the Km is listed as 4.56 ± 0.12 mM, the kcat turned out to be 0.87 ± 0.012 s⁻¹ and the kcat/Km was determined as 190 M⁻¹ s⁻¹. Besides, in the series “purified protein [2]”, the Km was 4.25 ± 0.09 mM, the kcat amounted to 0.65 ± 0.015 s⁻¹ and the kcat/Km was found to be 150 M⁻¹ s⁻¹.

B6: YqjM (Bacillus subtilis subsp. subtilis str. 168; I69G) (protein)
chain: ARKLFTPITIKDMTLKNRIVMSPMCMYSSHEKDGKLTPFHMAHYISRAIGQVGLIIVEASAVNPQGRGTDQDLGIWSDEHIEGFAKLTEQVKEQGSKIGIQLAHAGRKAELEGDIFAPSAIAFDEQSATPVEMSAEKVKETVQEFKQAAARAKEAGFDVIEIHAAHGYLIHEFLSPLSNHRTDEYGGSPENRYRFLREIIDEVKQVWDGPLFVRVSASDYTDKGLDIADHIGFAKWMKEQGVDLIDCSSGALVHADINVFPGYQVSFAEKIREQADMATGAVGMITDGSMAEEILQNGRADLIFIGRELLRDPFFARTAAKQLNTEIPAPVQYERGW
notes: ene-reductase, FMN enzyme
Consider B6, for which, in the series “purified protein [1]”, the Km was 3.48 ± 0.11 mM, the kcat came out at 0.43 ± 0.01 s⁻¹ and the kcat/Km amounted to 120 M⁻¹ s⁻¹. Moreover, in the series “purified protein [2]”, the Km came out at 3.56 ± 0.08 mM, the kcat came to 0.39 ± 0.012 s⁻¹ and the kcat/Km was 110 M⁻¹ s⁻¹.

B7: YqjM (Bacillus subtilis subsp. subtilis str. 168; C26G/I69Y/Y169F) (protein)
chain: ARKLFTPITIKDMTLKNRIVMSPMGMYSSHEKDGKLTPFHMAHYISRAIGQVGLIIVEASAVNPQGRYTDQDLGIWSDEHIEGFAKLTEQVKEQGSKIGIQLAHAGRKAELEGDIFAPSAIAFDEQSATPVEMSAEKVKETVQEFKQAAARAKEAGFDVIEIHAAHGFLIHEFLSPLSNHRTDEYGGSPENRYRFLREIIDEVKQVWDGPLFVRVSASDYTDKGLDIADHIGFAKWMKEQGVDLIDCSSGALVHADINVFPGYQVSFAEKIREQADMATGAVGMITDGSMAEEILQNGRADLIFIGRELLRDPFFARTAAKQLNTEIPAPVQYERGW
notes: ene-reductase, FMN enzyme
Consider B7, for which, in “purified protein [2]”, the Km is recorded as 1.69 ± 0.01 mM, the kcat amounted to 0.56 ± 0.009 s⁻¹ and the kcat/Km was 330 M⁻¹ s⁻¹.

The record behind these values is article PMC10761851, “Asymmetric α-benzylation of cyclic ketones enabled by concurrent chemical aldol condensation and biocatalytic reduction” (Nature Communications, 2024).
